Here are results for two molecules from patent publication US11834472B2, “Anti-IL-22 antibodies, antibody fragments, their immunoconjugates and uses thereof” (BioAtla, Inc., priority 2018, dated 2023).

Like-named read-outs stand apart in the source and are kept apart here.

Data set [1] is described as follows: Pharmacokinetics in NOD SCID mice, plasma concentration by solid phase ELISA. The data set is classed as in vivo, mouse. The settings on record: after a 10 mg/kg IV injection. The method, then: The pharmacokinetics of the mutant antibodies of Table 1 were analyzed in mice. The antibodies were injected into mice by IV injection at two doses 0.3 mg/kg and 10 mg/kg. The concentrations of the injected antibodies in the blood plasma were measured by solid phase ELISA.
Two anti-IL-22 antibodies CPS02 and CPS09 were tested in NOD SCID mice. The antibodies were injected via IV at two dosages: 0.3 mg/kg and 10 mg/kg. Three mice were used for each dose group. Blood samples were retrieved from the mice at 10 min, 1 h, 3 h 7 h, 24 h, 48 h, 96 h, 168 h, 240 h and 336 h after the IV injection. The concentrations of the injected antibodies in the blood samples were measured by solid phase ELISA.
In general terms: An ELISA detects its analyte on a solid surface through an enzyme-linked reagent.

The next data set deals with T1, mouse IL-22 (mIL-22) (Mus musculus, UniProt Q9JJY9).
T1 sequence (Q9JJY9 34-179): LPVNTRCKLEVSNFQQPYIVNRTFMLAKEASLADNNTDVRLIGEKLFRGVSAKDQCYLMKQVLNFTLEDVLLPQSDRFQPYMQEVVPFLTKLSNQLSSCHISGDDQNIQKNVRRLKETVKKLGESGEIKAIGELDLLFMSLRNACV
Briefly: Inhibition of mIL-22 induced Stat3 phosphorylation in HepG2 cells. The data set is classed as cell-based. The following applies: mAb 6.7 nM. On the procedure: One of the immediate functions of IL-22 is inducing phosphorylation of Stat3, a protein in the signaling pathway of IL-22. The 10 antibodies of Table 1 were tested in a cell-based assay for blocking IL-22-dependent phosphorylation of Stat3 through human or mouse IL-22 in HepG2 cells. Antibody hum10 and mutant CPE-LC-E049K were used as controls. Four concentrations of each of the antibodies were used: 0.11 μg/mL, 0.33 μg/mL, 1 μg/mL, and 3 μg/mL.
30,000 human HepG2 cells were seeded in 96 well plates and serum starved overnight. Three-fold dilutions of anti-IL-22 antibodies and control hum10 antibody at concentrations of 0.11 μg/mL, 0.33 μg/mL, 1 μg/mL, and 3 μg/mL were incubated with 200 ng/ml of hIL-22 or mIL-22 at 37° C. for one hour then added to the serum starved human HepG2 cells. The HepG2 cells were incubated with the antibody-IL-22 mixture at 37° C. for 20 minutes. After incubation, HepG2 cells were washed with PBS and lysed. Half of the cell lysate was used to determine the level of phosphorylated Stat3 using Cell Signaling kit #7300 following the vendor's protocol and the other half of the cell lysate was used to determine the level of total Stat3 by Western blot analysis using a Santa Cruz rabbit polyclonal antibody (Sc-7179) against human Stat3.

Data set [2] deals with imiquimod (IMQ) induced psoriasis. The class given is in vivo. The settings on record: for reduction in body weight of the treated mice: days 0-7, in comparison to dexamethasone / PBS (FIG. 13). From the text: Two anti-IL-22 antibodies of the present invention, CPS02 and CPS09, were used for the treatment of imiquimod (IMQ) induced psoriasis in mice (FIG. 12). The mice were male BALB/c mice, which were an albino, laboratory-bred strain of the house mouse. A total of 70 mice, at a body weight of 18-20 g, were acclimated for 7 days before induction of psoriasis.
The 70 mice were randomized into 7 groups (10 mice in each group). One group (group 1) was used as a negative control to which no imiquimod was administered to the mice, which was instead replaced with Vaseline. […] The other 6 groups (groups 2-7) were dosed topically with imiquimod at a dosage of 82.5 mg/mouse (5% cream) once daily (qd) for 8 consecutive days from day 0 to day 7 (20 mg for the left ear, 62.5 mg for the shaved back) to induce psoriasis. The back skin was shaved to expose an area of 2×3 cm^2. For the Vaseline control group, the Vaseline was also applied at 82.5 mg/mouse once daily (qd) for 8 consecutive days (20 mg for left ear, 62.5 mg for the shaved back) from day 0 to day 7.
Group 2 was a group of psoriasis-induced mice that were untreated to serve as a control group. The treatment period completely overlapped with the imiquimod application period (day 0 to day 7). For group 2, the mice received both imiquimod and […] on each day of the 8-day period (day 0 to day 7). For the groups that received intravenous (I.V.) injection, the imiquimod was applied within one hour after the I.V. injection on days 0 and 3.
Group 3 was treated with the steroid dexamethasone, which is a current therapeutic treatment used for psoriasis. The dexamethasone was topically applied twice a day (BID) for 8 days. Group 4 was treated with phosphate-buffered saline (PBS), which served as a negative control. Group 5 was treated with an isotype control antibody that also served as a negative control. Groups 6-7 were treated with the anti-IL22 antibodies CPS02 (A) and CPS09 (B), respectively. The treatments for Groups 4-7 were administered by a single intravenous (I.V.) injection on each of days 0 and 3. 3 mice in group 6 died on day 0 and 2 died on day 1. On day 3, the I.V. injection dosage for this group was decreased to 10 mg/kg.
During the 8 day treatment period, the ear thickness was measured on days 0, 3, 5 and 7. The body weight and various skin scores were recorded daily. Pictures of the psoriasis sites were taken on days 0, 3, 5 and 7. On days 1 and 4, about 60 μl blood was collected via retro-orbital bleeding over 24 hours and placed in BD Microtainer® tubes coated with dipotassium ethylenediaminetetraacetic acid (K2EDTA). Plasma was then collected (to get at least 20 μl plasma) and stored at −80° C.
Skin scores for erythema, scales and thickness were measured daily according to an established grading system. The erythema, scales and thickness were scored independently on a scale of from 0 to 4: 0 means none, 1 means slight, 2 means moderate, 3 means marked, and 4 means very marked. The cumulative (total) skin score was also calculated.
The effects of the treatments were analyzed statistically using two-way analysis of variance (ANOVA, Bonferroni post-tests) or one-way ANOVA analysis. For comparisons between the treatment groups and the control group, the p value is denoted in FIGS. 13-18 as (*) if less than 0.05, (**) if less than 0.01, or (***) if less than 0.001.

The nature of data set [3]: Aggregate formation at 10 mg/mL in PBS. The class given is physicochemical.
The target in the next data set is T2, mouse IL-22 (Mus musculus, UniProt Q9JJY9).
T2 sequence (Q9JJY9 34-179): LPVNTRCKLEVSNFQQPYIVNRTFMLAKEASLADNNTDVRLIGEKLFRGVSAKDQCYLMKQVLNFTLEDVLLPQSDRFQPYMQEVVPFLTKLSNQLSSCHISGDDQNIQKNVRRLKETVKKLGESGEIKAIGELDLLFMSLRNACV
Briefly: SPR capture assay, affinity to mouse IL-22. The class given is binding. The following applies: mouse IL-22, SPR. The method, then:
(§1) The affinity of the 10 antibodies of Table 1 was measured by Surface Plasma Resonance (SPR) using a capture assay in PBS buffer to generate binding curves at four different concentrations of each antibody (0.05, 0.1, 0.5, and 1.0 μg/ml). The Ka, Kd and KD values for the mutant antibodies were calculated from the curves for each of the antibodies.
(§2) The affinity of the 10 antibodies of Table 1 was measured by Surface Plasma Resonance (SPR) using a capture assay on a SPR-2 instrument (SierraSensiors, Hamburg, Germany). The antigens hIL-22 and mIL-22 were immobilized on chips. The running buffer for the assay contained 10 mM HEPES with a pH of 7.4, 500 mM NaCl, and 0.05% TWEEN® 20. […] The off-rate was measured for 6 minutes. Binding constants were calculated using the curve fitting software Analyzer2 (Sierra Sensors). Sensorgrams were analyzed with the instrument specific software and with BIAevaluation 4.1 software. The binding data were analyzed using the Langmuir 1:1 model (human IL-22) or a model for a heterogeneous ligand ([…]).
(§3) The antibodies were tested at four different concentrations of each antibody: 0.33 nM, 0.67 nM, 3.3 nM, 6.7 nM for hIL-22; 1, 2, […] for mIL-22. Antibody CPE-LC-E049K was used as a control.

Another data set is described as follows: Thermostability. The class given is physicochemical.
For the next data set, the target named is T3, human IL-22 (Homo sapiens, UniProt Q9GZX6).
T3 sequence (Q9GZX6 34-179): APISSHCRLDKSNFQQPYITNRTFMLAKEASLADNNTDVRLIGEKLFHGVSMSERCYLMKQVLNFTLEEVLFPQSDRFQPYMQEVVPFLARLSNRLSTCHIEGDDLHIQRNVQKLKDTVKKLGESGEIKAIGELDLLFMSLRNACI
In words: SPR capture assay, affinity to human IL-22. The class given is binding. The settings on record: human IL-22, SPR. On the procedure:
as §1, §2, §3

A further data set concerns the target T4, mIL22 (Mus musculus, UniProt Q9JJY9).
T4 sequence (Q9JJY9 34-179): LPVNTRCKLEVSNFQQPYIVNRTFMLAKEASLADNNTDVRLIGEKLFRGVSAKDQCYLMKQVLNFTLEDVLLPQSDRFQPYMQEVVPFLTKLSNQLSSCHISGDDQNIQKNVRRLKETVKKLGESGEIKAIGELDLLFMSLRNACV
Briefly: Affinity ELISA mIL22. The data set is classed as binding. From the text:
The CPE™ library was screened for antibodies that were able to bind to both human IL-22 and mouse IL-22 with high affinity. Specifically, the CPE™ variants were screened by affinity ELISA for mouse IL-22 (mIL-22) binding affinity. The hum10 was included in every affinity ELISA plate as a control. The CPE™ variants with increased binding affinity to mIL-22 compared to hum10 were scored as primary CPE™ hits. The primary CPE™ hits were re-arrayed, re-transfected, and screened again by affinity ELISA and also by titration ELISA using both mIL-22 and human IL-22 (hIL-22) for antibodies that bind to both mIL-22 and hIL-22. These 10 mutant antibodies were selected based on ELISA data and sequence diversity, ability to scaled up and purified.

B1: CPS09: mutant anti-IL-22 antibody binding human and mouse IL-22; light chain LC-04, heavy chain HC-25 (antibody, V domains shown)
VH: QVQLVQSGAEVKKPGASVKVSCKASGYIFRSYWIHWIRQPPGKGLEWIGRIYPGTGRTYYNEKFKGRVTISADKSISTAYLQWSSLKASDTAMYYCARSYDYSVAYWGQGTLVTVSS
VL: AIQLTQSPSSLSASVGDRVTITCSASSSVSYMHWYLQKPGQSPQLLIYETRKLASGVPSRFSGSGSGTDFTFTISSLEAEDAATYYCQQWSSNPYITFGQGTKVEIKR
With B1, the half-life in mice entry in data set [1] is given as “about 16 hours”. The “STAT3 Phosphorylation; mIL22 % inhibition” value with mouse IL-22 (mIL-22) came out at 63.12%. Moreover, in data set [2] (IMQ psoriasis mice), the “effect in treating psoriasis in the mouse model (summary)” value is on record as “especially effective in treating psoriasis” and the “reduction in body weight of the treated mice” value is reported as “less reduction in body weight”. The “reduction in body weight of the treated mice” value in data set [2] (IMQ psoriasis mice, listed as CSP09) is “reduction in body weight similar to the PBS buffer negative control”. For the same molecule, the “side effect (summary)” value in data set [2] (in comparison with the known treatment (dexamethasone)) is reported as “only a minimal side effect”. For the same molecule, in data set [2] (vs negative controls (isotype matched antibody, PBS, vehicle) (FIG. 14)), the ear skin thickness entry is on record as “less”. In data set [2] (vs negative controls (isotype matched antibody, PBS, vehicle) (FIG. 15)), the skin erythema score result is on record as “lower”. Besides, in data set [2] (vs negative controls (isotype matched antibody, PBS, vehicle) (FIG. 16)), the skin scale score entry is “lower”. Besides, the skin thickness entry in data set [2] (vs negative controls (isotype matched antibody, PBS, vehicle) (FIG. 17)) was “lower”. Besides, the “Aggregate formation at 10 mg/mL in PBS” value in data set [3] is listed as “no”. In the data set with mouse IL-22, the ka was 194000 M·s and the kd came out at 0.000768 s⁻¹. Moreover, the “Thermostability (% remaining activity 60 min); of duplicate samples” value in “Thermostability” is 102%. In the data set with human IL-22, this molecule displayed a ka of 860000 M·s and a kd of 2.18e-05 s⁻¹.

B2: hum10: parent humanized monoclonal antibody against human IL-22; light chain variable region SEQ ID NO: 19, heavy chain variable region SEQ ID NO:20 (antibody, V domains shown)
VH: QVQLVQSGAEVKKPGASVKVSCKASGYIFTSYWIHWIRQPPGKGLEWIGRIYPGTGNTYYNEKFKGRVTISADKSISTAYLQWSSLKASDTAMYYCARSYDSSCAYWGQGTLVTVSS
VL: AIQLTQSPSSLSASVGDRVTITCSASSSVSYMHWYLQKPGQSPQLLIYETSKLASGVPSRFSGSGSGTDFTFTISSLEAEDAATYYCQQWSSNPYITFGQGTKVEIKR
modifications: Synthetic sequence hum10-HC; Synthetic sequence hum10-LC
In the case of B2, the “Affinity ELISA mIL22 50% max signal mAb” value with mIL22 (first mIL22 line of Table 3) and with mIL22 (second mIL22 line of Table 3) was “no binding” in each case. For the same molecule, in the data set with mouse IL-22 (mIL-22), the “STAT3 Phosphorylation; mIL22 % inhibition” value is “no inhibition”.
